Experiment [1] addresses T1, Toc75 (pea (endogenous in pea chloroplast …, UniProt Q43715 132-809)).
T1 sequence (looked up): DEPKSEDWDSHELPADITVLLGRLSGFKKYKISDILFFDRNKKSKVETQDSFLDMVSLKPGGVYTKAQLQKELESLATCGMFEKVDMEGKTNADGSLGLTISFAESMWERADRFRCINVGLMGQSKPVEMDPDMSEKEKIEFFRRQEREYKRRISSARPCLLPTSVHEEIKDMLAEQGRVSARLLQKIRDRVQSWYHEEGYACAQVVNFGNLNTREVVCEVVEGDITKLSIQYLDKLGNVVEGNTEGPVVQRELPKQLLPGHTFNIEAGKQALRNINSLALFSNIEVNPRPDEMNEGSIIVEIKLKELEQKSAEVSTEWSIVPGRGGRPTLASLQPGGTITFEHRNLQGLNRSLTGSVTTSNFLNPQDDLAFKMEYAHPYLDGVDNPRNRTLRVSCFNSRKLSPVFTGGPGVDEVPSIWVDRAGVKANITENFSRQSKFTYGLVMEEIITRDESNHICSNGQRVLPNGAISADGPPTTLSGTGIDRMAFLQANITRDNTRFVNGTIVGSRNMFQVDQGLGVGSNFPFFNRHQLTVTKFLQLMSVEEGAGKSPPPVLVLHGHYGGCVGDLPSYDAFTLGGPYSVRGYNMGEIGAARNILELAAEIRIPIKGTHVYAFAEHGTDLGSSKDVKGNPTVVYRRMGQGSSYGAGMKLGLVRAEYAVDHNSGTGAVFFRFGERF
The experiment is described as follows: co-sedimentation.

For experiment [2], the target named is 86-kD fragment of Toc159 (pea (endogenous in pea chloroplast outer envelope)). The experiment in a line: subunit quantification by immunoblot.
For experiment [3] the target is unchanged. The experiment is described as follows: subunit quantification by radioactive NEM labelling of cysteines.
Experiment [4] shares this target. The experiment in a line: subunit quantification by Coomassie staining.

Where “and” joins values, the source holds several entries; their conditions need not be identical. Equal values may be shown once.

B1: Toc34 (natural protein, UniProt Q41009 1-310, looked up)
chain: MASQQQTVREWSGINTFAPATQTKLLELLGNLKQEDVNSLTILVMGKGGVGKSSTVNSIIGERVVSISPFQSEGPRPVMVSRSRAGFTLNIIDTPGLIEGGYINDMALNIIKSFLLDKTIDVLLYVDRLDAYRVDNLDKLVAKAITDSFGKGIWNKAIVALTHAQFSPPDGLPYDEFFSKRSEALLQVVRSGASLKKDAQASDIPVVLIENSGRCNKNDSDEKVLPNGIAWIPHLVQTITEVALNKSESIFVDKNLIDGPNPNQRGKLWIPLIFALQYLFLAKPIEALIRRDIATETKPAWETRDVGDRK
Consider B1, for which the binding result in experiment [1] is “binds”. Moreover, the stoichiometry N (molecules per Toc159) in experiment [2] is 4 and 6; in experiment [3], 4 to 5; in experiment [4], 4 to 6.

B2: Toc75 (natural protein)
chain: T1 sequence (looked up)
Take B2: the stoichiometry N (molecules per Toc159) in experiment [2] is 4 to 5; in experiment [3] it was 4; in experiment [4], 4.

The values are drawn from paper PMC2173740 (The Journal of Cell Biology, 2003).
